Tested on: stromal cell-derived factor 1 (SDF-1)

cathepsin K (CTK)
SDF-1 cleavage by CTK (SDS-PAGE and western blot, time course of minutes): The results obtained show fast and site specific SDF-1 cleavage by CTK

Reference: patent US20080305097
